Data published in US20230242610A1.
Each block holds one substance with its values, some of them ahead of it.

How the values were obtained:
mTMEM16A (mouse) = mTMEM16A (mouse) (UniProt Q8BHY3); experiment: cell-based or functional assay
TMEM16A-GFP (mouse) = TMEM16A-GFP (mouse) (UniProt Q8BHY3); experiment: SiMPull, GFP photobleaching step count (stoichiometry)

Sequence of mTMEM16A (mouse) (Q8BHY3 whole entry): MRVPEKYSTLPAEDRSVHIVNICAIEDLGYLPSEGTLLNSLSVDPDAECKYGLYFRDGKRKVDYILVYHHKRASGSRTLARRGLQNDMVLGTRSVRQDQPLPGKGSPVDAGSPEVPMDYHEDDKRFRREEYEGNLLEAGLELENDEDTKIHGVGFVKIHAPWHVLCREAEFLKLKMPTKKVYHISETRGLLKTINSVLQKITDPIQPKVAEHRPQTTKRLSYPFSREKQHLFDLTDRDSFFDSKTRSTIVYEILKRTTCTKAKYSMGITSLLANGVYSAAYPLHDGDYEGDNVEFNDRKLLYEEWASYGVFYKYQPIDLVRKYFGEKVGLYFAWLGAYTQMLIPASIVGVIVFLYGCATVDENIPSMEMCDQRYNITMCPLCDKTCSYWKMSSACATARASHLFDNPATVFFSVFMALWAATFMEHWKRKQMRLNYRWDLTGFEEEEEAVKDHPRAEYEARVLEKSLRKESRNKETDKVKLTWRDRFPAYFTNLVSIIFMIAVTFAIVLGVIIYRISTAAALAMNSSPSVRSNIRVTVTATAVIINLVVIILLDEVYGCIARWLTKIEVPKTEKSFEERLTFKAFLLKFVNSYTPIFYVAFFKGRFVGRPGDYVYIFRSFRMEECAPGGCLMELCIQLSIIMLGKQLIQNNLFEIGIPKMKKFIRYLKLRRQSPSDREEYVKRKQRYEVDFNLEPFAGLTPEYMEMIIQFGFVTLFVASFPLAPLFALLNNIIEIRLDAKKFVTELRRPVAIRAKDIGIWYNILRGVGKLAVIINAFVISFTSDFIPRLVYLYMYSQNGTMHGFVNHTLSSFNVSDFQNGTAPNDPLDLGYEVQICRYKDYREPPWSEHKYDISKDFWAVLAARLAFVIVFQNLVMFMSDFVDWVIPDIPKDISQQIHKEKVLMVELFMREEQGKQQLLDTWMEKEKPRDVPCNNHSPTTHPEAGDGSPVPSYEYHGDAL

Substance: HA-KCNE1 (from UniProt P15382 1-129)
share of pulled-down spots with one-step photobleaching of TMEM16A-GFP (TMEM16A-GFP (mouse)): 20%
share of pulled-down spots with three-step photobleaching of TMEM16A-GFP (TMEM16A-GFP (mouse)): 10%
share of pulled-down spots with two-step photobleaching of TMEM16A-GFP (TMEM16A-GFP (mouse)): 70%

Substance: KCNE1ΔNt16 (from UniProt P15382 16-129)
current density at +100 mV, HEK293T co-expressing TMEM16A and KCNE1ΔNt16 (mTMEM16A (mouse)): 25.4 pA/pF

Substance: KCNE1ΔNt30 (from UniProt P15382 30-129)
current density at +100 mV, HEK293T co-expressing TMEM16A and KCNE1ΔNt30 (mTMEM16A (mouse)): 25.2 pA/pF

Substance: hKCNE1 (from UniProt P15382 1-129)
current density at +100 mV with 1 mM BAPTA, HEK293T, TMEM16A co-expressed with KCNE1 (against TMEM16A alone) (mTMEM16A (mouse)): 22 pA/pF
current density at +100 mV, whole-cell patch clamp, HEK293T co-expressing both proteins (mTMEM16A (mouse)): 18.1 pA/pF

Substance: KCNE1S38G (from UniProt P15382 1-129)
current density at +100 mV, HEK293T co-expressing TMEM16A and KCNE1 S38G (mTMEM16A (mouse)): 6.96 pA/pF

Next, values leading:

current density at +100 mV, HEK293T co-expressing TMEM16A and KCNE1ΔCt (mTMEM16A (mouse)): 25 pA/pF
Substance: KCNE1ΔCt (from UniProt P15382 1-66)

current density at +100 mV, HEK293T co-expressing TMEM16A and KCNE1ΔNt (mTMEM16A (mouse)): 6.56 pA/pF
Substance: KCNE1ΔNt (from UniProt P15382 43-129)

current density at +100 mV, HEK293T co-expressing TMEM16A and KCNE1 T7I (mTMEM16A (mouse)): 24.7 pA/pF
Substance: KCNE1 T7I (from UniProt P15382 1-129)
